Measured values reported in paper PMC7881117 (Nature Communications, 2021).

Molecular target: T1, full-length p53 (UniProt P04637 1-393)
T1 construct: A fluorescein-labelled form was used in the ubiquitination assay only
Assay: SPR; p53 binding domain of MDM2 immobilised on a CM5 chip by amine coupling; full-length p53 at 0.125 to 2 μM flowed over; BIAcore 3000
Settings: both partners purified

T1 sequence (P04637 whole entry): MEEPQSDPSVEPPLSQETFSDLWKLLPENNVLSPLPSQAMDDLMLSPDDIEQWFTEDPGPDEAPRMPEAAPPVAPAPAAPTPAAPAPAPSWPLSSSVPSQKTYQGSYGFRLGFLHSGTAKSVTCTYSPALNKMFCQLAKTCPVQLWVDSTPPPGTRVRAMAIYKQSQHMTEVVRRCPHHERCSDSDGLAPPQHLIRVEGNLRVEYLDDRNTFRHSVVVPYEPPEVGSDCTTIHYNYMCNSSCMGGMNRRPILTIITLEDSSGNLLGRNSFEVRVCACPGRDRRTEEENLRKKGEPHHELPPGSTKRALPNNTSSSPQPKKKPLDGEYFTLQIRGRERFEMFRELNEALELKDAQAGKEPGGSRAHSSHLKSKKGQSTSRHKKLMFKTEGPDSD

Kd: 600 ± 100 nM
B1: MDM2 p53 binding domain (domain or fragment)
chain: TLVRPKPLLLKLLKSVGAQKDTYTMKEVLFYLGQYIMTKRLYDEKQQHIVYCSNDLLGDLFGVPSFSVKEHRKIYTMIYRNLVV
